T1: human Fcγ receptor RIIA (CD32a) (human, UniProt P12318 36-218)
T1 construct: bought recombinant protein; also called hFcγR
T1 sequence (looked up): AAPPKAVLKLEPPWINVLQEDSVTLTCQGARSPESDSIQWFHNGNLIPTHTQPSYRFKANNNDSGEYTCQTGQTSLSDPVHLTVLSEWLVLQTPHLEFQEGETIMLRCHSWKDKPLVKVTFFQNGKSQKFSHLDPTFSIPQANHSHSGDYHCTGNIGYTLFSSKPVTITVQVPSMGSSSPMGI

T2: human Fcγ receptor RIIB/C (CD32b/c) (human, UniProt P31994 46-217)
T2 construct: bought recombinant protein; also called CD32c; hFcγR
T2 sequence (looked up): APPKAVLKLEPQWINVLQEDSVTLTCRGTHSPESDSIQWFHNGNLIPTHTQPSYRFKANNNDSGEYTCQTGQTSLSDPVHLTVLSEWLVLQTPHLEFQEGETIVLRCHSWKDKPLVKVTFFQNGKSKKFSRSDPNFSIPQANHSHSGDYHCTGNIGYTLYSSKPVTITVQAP

T3: mouse CD47 (mouse, UniProt Q61735 19-140, limits assumed)
T3 construct: also called mouse CD47 protein
T3 sequence (looked up): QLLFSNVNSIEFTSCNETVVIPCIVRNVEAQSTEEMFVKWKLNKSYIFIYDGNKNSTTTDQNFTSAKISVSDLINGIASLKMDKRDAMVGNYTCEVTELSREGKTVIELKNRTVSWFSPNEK

T4: rat CD47 (rat, UniProt P97829 19-140, limits assumed)
T4 sequence (looked up): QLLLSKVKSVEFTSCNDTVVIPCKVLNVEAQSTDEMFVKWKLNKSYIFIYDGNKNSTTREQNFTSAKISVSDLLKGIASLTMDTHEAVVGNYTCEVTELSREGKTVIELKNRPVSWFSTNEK


Key:
[1] = target: T1, human Fcγ receptor RIIA (CD32a); assay: SPR (ProteOn XPR36), biotinylated Fc construct on NLC chip, hFcγR as analyte, KD,app
[2] = target: T5, human Fcγ receptor RI (CD64) (human, UniProt P12314 16-288); assay: as above
T5 construct: bought recombinant protein; also called hFcγRI; hFcγR
T5 sequence (P12314 16-288 limits assumed): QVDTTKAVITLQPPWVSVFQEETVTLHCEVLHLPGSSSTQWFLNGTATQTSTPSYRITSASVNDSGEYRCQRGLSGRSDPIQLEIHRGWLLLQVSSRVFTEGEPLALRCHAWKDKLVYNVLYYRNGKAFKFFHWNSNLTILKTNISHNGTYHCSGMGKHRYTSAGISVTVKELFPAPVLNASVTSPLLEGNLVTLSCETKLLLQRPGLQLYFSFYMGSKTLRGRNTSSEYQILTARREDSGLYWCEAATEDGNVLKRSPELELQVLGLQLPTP

[3] = target: T6, human Fcγ receptor RIIIA (CD16a) (human, UniProt P08637 17-208); assay: SPR (ProteOn XPR36), biotinylated Fc construct on NLC chip, hFcγR as analyte
T6 construct: bought recombinant protein; also called hFcγR
T6 sequence (P08637 17-208 limits assumed): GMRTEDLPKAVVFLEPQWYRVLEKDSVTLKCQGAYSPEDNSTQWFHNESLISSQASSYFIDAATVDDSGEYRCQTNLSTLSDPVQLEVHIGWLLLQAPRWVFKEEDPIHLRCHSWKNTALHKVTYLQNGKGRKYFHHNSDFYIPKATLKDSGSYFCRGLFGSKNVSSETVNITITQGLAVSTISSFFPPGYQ

[4] = target: T2, human Fcγ receptor RIIB/C (CD32b/c); assay: as above
mouse CD47 [5] = target: T3, mouse CD47; assay: SPR, 25 C, 1:1 Langmuir fit
human CD47 [6] = target: T7, human CD47 (human, UniProt Q08722 19-139); assay: SPR, 25 C, 1:1 Langmuir fit
T7 construct: extracellular domain; also called CD47 ECD
T7 sequence (Q08722 19-139 limits assumed): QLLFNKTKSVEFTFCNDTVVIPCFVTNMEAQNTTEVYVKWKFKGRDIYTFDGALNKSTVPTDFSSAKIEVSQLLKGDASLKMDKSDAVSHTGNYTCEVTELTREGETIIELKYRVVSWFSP

human CD47 [7] = target: T7, human CD47; assay: SPR as in Example 1
human CD47 [8] = target: T7, human CD47; assay: SPR, 25 C, 1:1 Langmuir fit; remark: listed apart in the source
human CD47 [9] = target: T7, human CD47; assay: SPR; protein made in E. coli
human CD47 [10] = target: T7, human CD47; assay: SPR; protein made in mammalian cell
mouse CD47 [11] = target: T3, mouse CD47; assay: SPR (Biacore T100 and ProteOn XPR36)
rat CD47 = target: T4, rat CD47; assay: SPR (Biacore T100 and ProteOn XPR36)
human CD47 [12] = target: T7, human CD47; assay: SPR (Biacore T100 and ProteOn XPR36)

Row | Molecule | Kd (mouse CD47 [5]) [nM] | Kd (human CD47 [6]) [nM] | Kd (human CD47 [8]) [nM] | Kd (human CD47 [10]) [nM] | also measured
1 | Fc variant construct IgG4_S228P, E233P, F234V, L235A, delG236 (Fc fusion) |  |  |  |  | Kd [1]: 1600 nM; Kd [2]: 2100 nM
2 | SIRP-α Fc construct with Fc variant IgG1_AAA (L234A, L235A, G237A), SEQ ID NO: 124 (Fc fusion) EEELQIIQPDKSVLVAAGETATLRCTITSLFPVGPIQWFRGAGPGRVLIYNQRQGPFPRVTTVSDTTKRNNMDFSIRIGNITPADAGTYYCIKFRKGSPDDVEFKSGAGTELSVRAKPSDKTHTCPPCPAPEAAGAPSVFLFPPKPKDTLMISRTPEVTCVVVDVSHEDPEVKFNWYVDGVEVHNAKTKPREEQYNSTYRVVSVLTVLHQDWLNGKEYKCKVSNKALPAPIEKTISKAKGQPREPQVYTLPPSREEMTKNQVSLTCLVKGFYPSDIAVEWESNGQPENNYKTTPPVLDSDGSFFLYSKLTVDKSRWQQGNVFSCSVMHEALHNHYTQKSLSLSPGK |  |  |  |  | Kd [1]: 2300 nM; Kd [2]: 8000 nM; binding result [3]: no binding (tested: 5000 nM); binding result [4]: no binding (tested: 5000 nM)
3 | SIRP-α D1 variant fused to Fc variant, SEQ ID NO: 100 (Fc fusion) EEELQVIQPDKSVLVAAGETATLRCTATSLFPVGPIQWFRGAGPGRELIYNQREGPFPRVTTVSDLTKRNNMDFSIRIGAITPADAGTYYCVKFRKGSPDDVEFKSGAGTELSVRAKPSDKTHTCPPCPAPEAAGAPSVFLFPPKPKDTLMISRTPEVTCVVVDVSHEDPEVKFNWYVDGVEVHNAKTKPREEQYASTYRVVSVLTVLHQDWLNGKEYKCKVSNKALPAPIEKTISKAKGQPREPQVYTLPPSREEMTKNQVSLTCLVKGFYPSDIAVEWESNGQPENNYKTTPPVLDSDGSFFLYSKLTVDKSRWQQGNVFSCSVMHEALHNHYTQKSLSLSPGK | 63.2 | 2.69 |  |  | Kd (human CD47 [7]): 1.79 nM
4 | SIRP-α D1 variant fused to Fc variant, SEQ ID NO: 104 (Fc fusion) EEELQIIQPDKSVLVAAGETATLRCTITSLFPVGPIQWFRGAGPGRELIYNQREGPFPRVTTVSDTTKRNNMDFSIRIGAITPADAGTYYCVKFRKGSPDDVEFKSGAGTELSVRAKPSDKTHTCPPCPAPEAAGAPSVFLFPPKPKDTLMISRTPEVTCVVVDVSHEDPEVKFNWYVDGVEVHNAKTKPREEQYASTYRVVSVLTVLHQDWLNGKEYKCKVSNKALPAPIEKTISKAKGQPREPQVYTLPPSREEMTKNQVSLTCLVKGFYPSDIAVEWESNGQPENNYKTTPPVLDSDGSFFLYSKLTVDKSRWQQGNVFSCSVMHEALHNHYTQKSLSLSPGK | 8.04 | 0.0919 |  |  | 
5 | SIRP-α D1 variant polypeptide of SEQ ID NO: 63 (receptor, engineered SIRP-α D1 domain) EEELQIIQPDKSVSVAAGESAILHCTITSLFPVGPIQWFRGAGPARVLIYNQRQGPFPRVTTVSETTKRENMDFSISISNITPADAGTYYCVKFRKGSPDTEFKSGAGTELSVRAKPS |  |  | 0.089 |  | Kd (human CD47 [9]): 0.089 nM
6 | SIRP-α Fc construct with wildtype IgG2 Fc, SEQ ID NO: 126 (Fc fusion) EEELQIIQPDKSVLVAAGETATLRCTITSLFPVGPIQWFRGAGPGRVLIYNQRQGPFPRVTTVSDTTKRNNMDFSIRIGNITPADAGTYYCIKFRKGSPDDVEFKSGAGTELSVRAKPSERKCCVECPPCPAPPVAGPSVFLFPPKPKDTLMISRTPEVTCVVVDVSHEDPEVQFNWYVDGVEVHNAKTKPREEQFNSTFRVVSVLTVVHQDWLNGKEYKCKVSNKGLPAPIEKTISKTKGQPREPQVYTLPPSREEMTKNQVSLTCLVKGFYPSDIAVEWESNGQPENNYKTTPPMLDSDGSFFLYSKLTVDKSRWQQGNVFSCSVMHEALHNHYTQKSLSLSPGK |  |  |  |  | Kd [1]: 420 nM; Kd [2]: 700 nM; binding result [3]: no binding (tested: 5000 nM); binding result [4]: no binding (tested: 5000 nM)
7 | SIRP-α D1 variant polypeptide of SEQ ID NO: 71 (receptor, engineered SIRP-α D1 domain) EEELQVIQPDKSVLVAAGETATLRCTATSLFPVGPIQWFRGAGPGRELIYNQRQGPFPRVTTVSDLTKRNNMDFSIRIGNITPADAGTYYCVKFRKGSPDDVEFKSGAGTELSVRAKPS |  |  | 4.94 | 4.94 | 
8 | SIRP-α D1 variant polypeptide of SEQ ID NO: 74 (receptor, engineered SIRP-α D1 domain) EEELQIIQPDKSVLVAAGETATLRCTITSLFPVGPIQWFRGAGPGRELIYNQREGPFPRVTTVSDTTKRNNMDFSIRIGNITPADAGTYYCVKFRKGSPDDVEFKSGAGTELSVRAKPS |  |  | 0.276 | 0.276 | 
9 | SIRP-α D1 variant polypeptide of SEQ ID NO: 72 (receptor, engineered SIRP-α D1 domain) EEELQIIQPDKSVLVAAGETATLRCTITSLFPVGPIQWFRGAGPGRELIYNQREGPFPRVTTVSDLTKRNNMDFSIRIGNITPADAGTYYCVKFRKGSPDDVEFKSGAGTELSVRAKPS |  |  | 0.738 | 0.738 | 
10 | SIRP-α D1 variant polypeptide of SEQ ID NO: 73 (receptor, engineered SIRP-α D1 domain) EEELQVIQPDKSVLVAAGETATLRCTITSLFPVGPIQWFRGAGPGRELIYNQREGPFPRVTTVSDTTKRNNMDFSIRIGNITPADAGTYYCVKFRKGSPDDVEFKSGAGTELSVRAKPS |  |  | 0.448 | 0.448 | 

More lines, main results first:

Row | Kd (mouse CD47 [5]) [nM] | Kd (human CD47 [6]) [nM] | Kd (human CD47 [8]) [nM] | Kd (human CD47 [10]) [nM] | Molecule | also measured
11 | 6.01 | 6.79 |  |  | SIRP-α D1 variant polypeptide of SEQ ID NO: 210 (receptor) EEELQIIQPDKSVLVAAGETATLRCTITSLFPVGPIQWFRGAGPGRELIYNQRDGPFPRVTTVSDTTKRNNMDFSIRIGAITPADAGTYYCVKFRKGIPDDVEFKSGAGTELSVRAKPS | Kd (mouse CD47 [11]): 0.612 nM; Kd (rat CD47): 4.59 nM; Kd (human CD47 [12]): 1.65 nM
12 |  |  | 7.41 | 7.41 | SIRP-α D1 variant polypeptide of SEQ ID NO: 76 (receptor, engineered SIRP-α D1 domain) EEELQVIQPDKSVLVAAGETATLRCTATSLFPVGPIQWFRGAGPGRELIYNQREGPFPRVTTVSDLTKRNNMDFSIRIGNITPADAGTYYCVKFRKGSPDDVEFKSGAGTELSVRAKPS | 
13 | 3.33 | 5.26 |  |  | SIRP-α D1 variant polypeptide of SEQ ID NO: 206 (receptor) EEELQIIQPDKSVLVAAGETATLRCTITSLRPVGPIQWFRGAGPGRELIYNQRDGPFPRVTTVSDTTKRNNMDFSIRIGAITPADAGTYYCVKFRKGIPDDVEFKSGAGTELSVRAKPS | Kd (mouse CD47 [11]): 0.288 nM; Kd (rat CD47): 1.49 nM; Kd (human CD47 [12]): 0.967 nM
14 | 5.21 | 3.49 |  |  | SIRP-α D1 variant polypeptide of SEQ ID NO: 204 (receptor) EEELQIIQPDKSVLVAAGETATLRCTITSLRPVGPIQWFRGAGPGRELIYNQRDGPFPRVTTVSDTTKRNNMDFSIRIGAITPADAGTYYCVKFRKGSPDDVEFKSGAGTELSVRAKPS | Kd (mouse CD47 [11]): 0.448 nM; Kd (rat CD47): 3.42 nM; Kd (human CD47 [12]): 0.653 nM
15 |  |  | 1.33 | 1.33 | SIRP-α D1 variant polypeptide of SEQ ID NO: 75 (receptor, engineered SIRP-α D1 domain) EEELQVIQPDKSVLVAAGETATLRCTITSLFPVGPIQWFRGAGPGRELIYNQREGPFPRVTTVSDLTKRNNMDFSIRIGNITPADAGTYYCVKFRKGSPDDVEFKSGAGTELSVRAKPS | 
16 |  |  | 0.114 | 0.114 | SIRP-α D1 variant polypeptide of SEQ ID NO: 77 (receptor, engineered SIRP-α D1 domain) EEELQIIQPDKSVLVAAGETATLRCTITSLFPVGPIQWFRGAGPGRVLIYNQRQGPFPRVTTVSDTTKRNNMDFSIRIGNITPADAGTYYCIKFRKGSPDDVEFKSGAGTELSVRAKPS | 
17 | 4.11 | 4.46 |  |  | SIRP-α D1 variant polypeptide of SEQ ID NO: 209 (receptor) EEELQIIQPDKSVLVAAGETATLRCTITSLYPVGPIQWFRGAGPGRELIYNQRDGPFPRVTTVSDTTKRNNMDFSIRIGAITPADAGTYYCVKFRKGIPDDVEFKSGAGTELSVRAKPS | Kd (mouse CD47 [11]): 0.371 nM; Kd (rat CD47): 2.26 nM; Kd (human CD47 [12]): 1.01 nM
18 | 43 | 0.0144 |  |  | SIRP-α D1 variant polypeptide of SEQ ID NO: 86 (receptor, engineered SIRP-α D1 domain) EEELQIIQPDKSVLVAAGETATLRCTITSLFPVGPIQWFRGAGPGRVLIYNQRQGPFPRVTTVSDTTKRNNMDFSIRIGNITPADAGTYYCIKFRKGSPDDVEFKSGAGTELSVRAKPS | 

Reference: patent US20200239543A1 (ALX ONCOLOGY, published 2020)
